Experimental data as given in the supplement of paper PMC10567573.

B1: ADD1 (parent)
chain: FASDGDSGTCSPLRHSFQKQQREK
B2: TFE3 (parent)
chain: FHLGLEDILMEEEEGVVGGLSGGA

Variants of: B1
Test: protein stability index of a GFP-peptide fusion (GPS, HEK-293T) (PSI 1-6); higher = more stable
Conditions: c terminus: a fixed tail appended
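Note: lentivirally expressed fusions sorted by FACS into six bins by GFP to DsRed ratio, PSI derived from sequencing read proportions per bin multiplied by bin number.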

Protein stability index: each site, then its substitutions
L13: A 4.98, P 4.1, Q 4.95, K 4.57, R 5.28, G 4.22, E 4.89, T 4.98, F 2.39
Q20: L 2.69, E 4.16, P 3.65, R 4.05, D 4.23, T 4.07, H 3.71, G 3.98, I 3.2
F1: M 5.2, S 5.12, C 4.17, P 5.76, D 4.91, T 5.55, N 5.19, G 4.99, Q 4.57, I 5.29, Y 4.07, R 5.07
S3: P 2.37, N 3.72, M 4.33, V 4.09, D 4.03, A 3.58, G 3.98, C 3.02, R 3.25, I 3.88, W 2.72, L 3.51
K24: L 3.15, V 3.13, P 3.42, A 2.92, G 3.41, M 2.46, S 3.4, F 2.96, R 3.14, N 3.57, W 3.08, T 3.88
H15: Q 3.44, F 3.01, D 5.02, I 3.5, M 2.88, E 4.34, W 2.39, G 3.29, T 4.16, R 3.45, K 4.1
S16: Q 4.27, F 2.84, D 4.82, W 2.75, C 2.24, R 3.89, K 4.59, H 4.27, L 3.17
Q21: G 3.94, E 3.84, A 3.85, W 3.49, H 3.4, N 4.04, C 3.57, I 3.42, S 3.64, L 3.26, P 3.67, R 3.75, M 3.48, F 3.89
P12: T 4.59, V 3.89, Y 3.86, C 2.73, I 3.37, D 4.34, E 3.93, G 4.73, F 3.02, L 3.88
G5: F 4.01, N 4.29, Q 4.66, W 1.56, I 3.68, Y 3.42, M 3.62, D 4.29, L 3.83, R 3.35, C 3.57, K 3.76, P 3.67
D4: Y 2.66, C 2.72, T 2.69, R 2.81, M 2.54, E 4.37, I 2.54, N 2.99
A2: S 4.47, R 4.38, H 2.76, W 4.27, V 3.07, L 3.7, N 4.79, T 4.39
C10: K 4.17, Y 1.63, F 1.87, P 3.65, Q 4.13, E 4.66, M 3.75, L 3.85, A 4.67
E23: Q 4.04, C 3.37, S 3.66, R 3.79, F 2.74, W 2.94, N 3.6, P 3.29, L 3.57, V 3.58, D 3.11
S11: A 3.9, V 4.58, P 4.62, K 4.45, E 4.5, N 1.87, H 2.62
R14: I 4.52, M 4.27, P 5.13, G 4.11, E 4.64, N 4.46, Y 1.94, Q 3.6, K 4.55
G8: H 3.86, S 3.58, K 3.57, A 2.82, C 3.1, M 2.96, L 3.2, N 3.5, V 3.81, T 3.75, D 4.29
R22: W 3.28, C 3.57, G 4.24, V 3.35, L 3.27, N 3.42, Q 3.84, S 4.21, A 3.68, H 3.84, T 3.48, M 3.77, K 4.57
T9: D 4.36, L 3.58, N 4.13, A 4.16, P 4.35, C 3.52, E 4.79, I 2.49, S 3.82
S7: A 3.82, D 4.18, H 3.42, N 4.14, P 3.85, R 4.01, Y 3.04, M 3.14, T 3.19, E 4.26, F 2.72, I 1.49
K19: T 3.11, H 4.43, Y 3.62, Q 4.53, N 3.08, E 3.71, P 3.09, G 3.54, C 1.66, L 2.76, M 3.61, S 3.23, F 3.01
D6: K 2.8, Q 3.17, H 2.29, T 2.9, S 3.12, F 1.97, L 2.6, Y 1.7, C 3.01, M 2.27
Q18: H 3.13, C 2.62, A 2.75, V 2.97, W 1.62, T 3.4, R 3.81, P 3.84, D 3.83, Y 3.31, K 3.31
F17: C 4.17, N 4.42, V 3.71, P 4.82, E 4.34, D 4.62, S 4.47, K 3.95, A 3.68, G 3.44, L 4.71

Variants of: B2
Test: as above
Conditions: c terminus: a fixed tail appended

Protein stability index of substitutions, site by site:
H2: W 2.94, P 4.26, R 4.16, V 2.75, G 4.41, E 3.95, Q 4.44, F 3.15, C 3.96, N 4.84, A 4.12, L 3.46, M 4.29, K 4.38, Y 3.56, I 2.52, D 4.81, T 4.23, S 4.27
F1: D 5.21, T 4.02, W 4.09, H 5.11, A 5.2, I 4.57, G 4.95, S 4.96, L 4.36, Q 5.15, N 5.56, Y 4.24, P 4.88, M 4.85, K 5.06, R 4.44, C 4.89, V 4.56, E 4.53
G4: R 2.5, Y 1.86, H 2.94, T 3.08, A 2.97, I 2.1, S 3.94, W 2.67, M 2.5, E 4.89, D 3.99, P 3.05, Q 3.54, K 2.23, V 2.13, L 2.46, C 2.67, N 3.48, F 2.01
L3: K 4.49, Q 4.22, R 4.14, M 3.92, N 4.17, A 4.52, H 4.32, F 3.92, D 5.27, T 4.5, S 3.5, V 4.14, E 5.06, G 3.44, P 4.44, Y 3.56, I 4.07, C 2.34, W 2.45
L5: E 4.96, F 3.16, D 4.38, A 4.62, C 4.36
